According to US20230346885A1 (published 2023):
Changes are numbered by the printed parent chain. Blank lines part the entries; values can stand above or below the binder they belong to.

Legend:
Assay in all cases: binding, other
PIWIL1 peptide on HLA [1] = target: T1, PIWIL1 peptide on HLA (human)
T1 peptide: SLIQNLFKV

PAEP peptide on HLA [2] = target: T2, PAEP peptide on HLA (human)
T2 peptide: TLLDTDYDNFL

PAEP peptide on HLA [3] = target: T3, PAEP peptide on HLA (human)
T3 peptide: LLDTDYDNFL

PAEP peptide on HLA [4] = target: T4, PAEP peptide on HLA (human)
T4 peptide: MMCQYLARV

PIWIL1 peptide on HLA [5] = target: T5, PIWIL1 peptide on HLA (human)
T5 peptide: SLSNRLYYL

B2: TCR of SEQ ID NOs 507 and 508 (TCR, V domains shown)
Valpha: QKEVEQNSGPLSVPEGAIASLNCTYSDRGSQSFFWYRQYSGKSPELIMFIYSNGDKEDGRFTAQLNKASQYVSLLIRDSQPSDSATYLCAVKTSYDKVIFGPGTSLSVIP
Vbeta: NAGVTQTPKFQVLKTGQSMTLQCAQDMNHEYMSWYRQDPGMGLRLIHYSVGAGITDQGEVPNGYNVSRSTTEDFPLRLLSAAPSQTSVYFCASSYGAGAFYTFGSGTRLTVV
binding result (PIWIL1 peptide on HLA [1]): recognises

B3: TCR of SEQ ID NOs 483 and 484 (TCR, V domains shown)
Valpha: ELKVEQNPLFLSMQEGKNYTIYCNYSTTSDRLYWYRQDPGKSLESLFVLLSNGAVKQEGRLMASLDTKARLSTLHITAAVHDLSATYFCAVGAYSGAGSYQLTFGKGTKLSVIP
Vbeta: NAGVIQNPRHLVRRRGQEARLRCSPMKGHSHVYWYRQLPEEGLKFMVYLQKENIIDESGMPKERFSAEFPKEGPSILRIQQVVRGDSAAYFCASSKYPAGEANEKLFFGSGTQLSVL
binding result (PAEP peptide on HLA [2]): recognises

B4: TCR of SEQ ID NOs 471 and 472 (TCR, V domains shown)
Valpha: KQEVTQIPAALSVPEGENLVLNCSFTDSAIYNLQWFRQDPGKGLTSLLLIQSSQREQTSGRLNASLDKSSGRSTLYIAASQPGDSATYLCAVSPINDYKLSFGAGTTVTVRA
Vbeta: KAGVTQTPRYLIKTRGQQVTLSCSPISGHRSVSWYQQTPGQGLQFLFEYFSETQRNKGNFPGRFSGRQFSNSRSEMNVSTLELGDSALYLCASSLVGTGGSPLHFGNGTRLTVT
binding result (PAEP peptide on HLA [3]): recognises

B6: TCR of SEQ ID NOs 497 and 498 (TCR, V domains shown)
Valpha: KQEVTQIPAALSVPEGENLVLNCSFTDSAIYNLQWFRQDPGKGLTSLLLIQSSQREQTSGRLNASLDKSSGRSTLYIAASQPGDSATYLCAARYNFNKFYFGSGTKLNVKP
Vbeta: NAGVTQTPKFQVLKTGQSMTLLCAQDMNHEYMYWYRQDPGMGLRLIHYSVGEGTTAKGEVPDGYNVSRSTTEDFPLRLLSAAPSQTSVYFCASSYTPGPSHEQYFGPGTRLTVT
binding result (PIWIL1 peptide on HLA [5]): recognises

B7: TCR of SEQ ID NOs 481 and 482 (TCR, V domains shown)
Valpha: KQEVTQIPAALSVPEGENLVLNCSFTDSAIYNLQWFRQDPGKGLTSLLLIQSSQREQTSGRLNASLDKSSGRSTLYIAASQPGDSATYLCAATDSWGKLQFGAGTQVVVTP
Vbeta: DTGVSQNPRHKITKRGQNVTFRCDPISEHNRLYWYRQTLGQGPEFLTYFRNEAQLEKSRLLSDRFSAERPKGSFSTLEIQRTEQGDSAMYLCASSLFSRGTNYGYTFGSGTRLTVV
binding result (PAEP peptide on HLA [2]): recognises

B8: TCR of SEQ ID NOs 499 and 500 (TCR, V domains shown)
Valpha: KQEVTQIPAALSVPEGENLVLNCSFTDSAIYNLQWFRQDPGKGLTSLLLIQSSQREQTSGRLNASLDKSSGRSTLYIAASQPGDSATYLCAVIDRAYSGAGSYQLTFGKGTKLSVIP
Vbeta: NAGVTQTPKFRILKIGQSMTLQCTQDMNHNYMYWYRQDPGMGLKLIHYSVGAGITDQGEVPNGYNVSRSTTEDFPLRLLSAAPSQTSVYFCASSLGVSYNEQFFGPGTRLTVL
binding result (PIWIL1 peptide on HLA [5]): recognises

Next, values leading:

binding result (PIWIL1 peptide on HLA [1]): recognises
B1: TCR of SEQ ID NOs 503 and 504 (TCR, V domains shown)
Valpha: B2 Valpha with K92M, T93G, S94N, Y95T, V98L, P102T, S105R, S107Q, I109F
Vbeta: B2 Vbeta with A97V, A99S, F100P, Y101L, T102H, S105N, V112T

binding result (PAEP peptide on HLA [4]): recognises
B5: TCR of SEQ ID NOs 477 and 478 (TCR, V domains shown)
Valpha: QKEVEQNSGPLSVPEGAIASLNCTYSDRGSQSFFWYRQYSGKSPELIMSIYSNGDKEDGRFTAQLNKASQYVSLLIRDSQPSDSATYLCAVSGSARQLTFGSGTQLTVLP
Vbeta: DGGITQSPKYLFRKEGQNVTLSCEQNLNHDAMYWYRQDPGQGLRLIYYSQIVNDFQKGDIAEGYSVSREKKESFPLTVTSAQKNPTAFYLCASSPFADDSYGYTFGSGTRLTVV

binding result (PAEP peptide on HLA [4]): recognises
B9: TCR of SEQ ID NOs 475 and 476 (TCR, V domains shown)
Valpha: QKEVEQNSGPLSVPEGAIASLNCTYSDRGSQSFFWYRQYSGKSPELIMFIYSNGDKEDGRFTAQLNKASQYVSLLIRDSQPSDSATYLCAVDGSYIPTFGRGTSLIVHP
Vbeta: NAGVTQTPKFRVLKTGQSMTLLCAQDMNHEYMYWYRQDPGMGLRLIHYSVGEGTTAKGEVPDGYNVSRLKKQNFLLGLESAAPSQTSVYFCASSSGGADTGELFFGEGSRLTVL
